Measured values reported in patent US20100189760A1.

Target: neural stem cell surface (cell surface molecule(s) of NSCs, not identified) (rat (adult hippocampus, stated in Example 1))
Test: flow cytometry, GFP bacterial clone displaying the peptide on NSCs

Binder	% NSCs with Bacteria
YMCMSRGDATCDV [clone 7C-4 peptide]	62%
WTWESAFAGRWEVGD [clone Co-8 peptide]	61.7%
LECTERGDFNCFV [clone 7C-7 peptide]	47.8%
RLCCWKTQYFCEI [clone Co-20 peptide]	70.9%
WRCLGDGYHACVR [clone Co-10 peptide]	72.7%
IWCGSRFGCWCKP [clone 7C-5 peptide]	65.6%
RRELVRMTDWVWVSG [clone 15-32 peptide]	70.4%
WYCFRENKYVCVM [clone 7C-1 peptide]	75.2%
WDCGKKNAWMCIW [clone Co-5 peptide]	67.4%
DLCTYGHLWLGNGRP [clone 15-59 peptide]	22.5%
GFVLVWSYTCRCWGK [clone 15-50 peptide]	64.9%
LNCAMYNACIW [clone 7C-14 peptide]	54.5%
WWCDMRGDSRCSG [clone 7C-24 peptide]	61.7%
VWCGMFGKRRCVT [clone Co-22 peptide]	75.6%
WLCKGSNKYMCEW [clone 7C-17 peptide]	67.8%
QCCQLRGDAVCNC [clone 7C-15 peptide]	54%

Binder	% NSCs with Bacteria
WMCSGVQPNACVW [clone 7C-22 peptide]	46.9%
ESCWYQIMYKCAN [clone 7C-2 peptide]	55.2%
MYCERDSKYWCIH [clone Co-21 peptide]	70.9%
WECAEESKFWCVF [clone Co-17 peptide]	72.1%
SKCWGWTPYYCVA [clone Co-9 peptide]	75.7%
LEDAMGWALSWGHIW [clone 15-6 peptide]	70.2%
WSCPKVNQYACFW [clone Co-2 peptide]	74.8%
SDWSVLLSCERWYCI [clone 15-16 peptide]	63.9%
WVCNDLIHHFCVW [clone Co-15 peptide]	70.9%
WNCIKGSSWACVW [clone 7C-21 peptide]	75.5%
LECPGESKYYCIY [clone Co-11 peptide]	72.7%
GGCRWYAKWVCVW [clone Co-3 peptide]	75.7%
SLCAAYNRWACIW [clone Co-1 peptide]	73.8%
FWCIRGEYWVCDR [clone 7C-12 peptide]	64.5%
LCCESYICALCHY [clone 7C-11 peptide]	37.7%

Other lines, results leading:

% NSCs with Bacteria	Binder
71.9%	WFCLLGRSAYCVR [clone 7C-3 peptide]
20.5%	WVCNKLGVYACEY [clone 7C-19 peptide]
63.3%	ESGLKVMCMKYYCMA [clone 15-52 peptide]
65.7%	WVCIWERFKSCNE [clone 7C-20 peptide]
61.8%	GECFYYVMNTCVW [clone 7C-6 peptide]
71.3%	WWCKKPEYWYCIW [clone Co-18 peptide]
74.3%	WVCLWRHRGDCSI [clone Co-12 peptide]
71.9%	QGCAFVTYWACIF [clone Co-16 peptide]
71.1%	LVCNRQNPWVCYI [clone Co-23 peptide]
71.3%	KLCCFDKGYYCMR [clone 7C-9 peptide]
75.9%	DHKFGLVMLNKYAYAG [clone 15-2 peptide]
68.8%	WLCLDKNCMACVW [clone 7C-8 peptide]
50.6%	WQCGRFWCIHCLW [clone Co-19 peptide]
64.8%	STCSWVSSYVCIM [clone Co-13 peptide]
